Laboratory results from publication PMC5175136, “Structural basis of the substrate preference towards CMP for a thymidylate synthase MilA involved in mildiomycin biosynthesis” (Scientific Reports, 2016).

Experiments:
MilA [1] = target: T1, MilA (Streptomyces rimofaciens, UniProt B4Y380, A176S); assay: HPLC/LC-MS of CMP and dCMP competition reaction; type: biochemical; details: 1 mM CMP and dCMP together, 2 mM tetrahydrofolate, 15 mM paraformaldehyde, pH 7.5, 37 °C
T1 construct: full-length, C-terminal 6xHis tag (LEHHHHHH) kept, pET28a, expressed in E. coli BL21(DE3); homodimer, active site from both subunits

MilA [2] = target: T2, MilA (Streptomyces rimofaciens, UniProt B4Y380, K133R/A176S); assay: HPLC/LC-MS of CMP and dCMP competition reaction; type: biochemical; details: 1 mM CMP and dCMP together, 2 mM tetrahydrofolate, 15 mM paraformaldehyde, pH 7.5, 37 °C
T2 construct: full-length, C-terminal 6xHis tag (LEHHHHHH) kept, pET28a, expressed in E. coli BL21(DE3); homodimer, active site from both subunits

MilA [3] = target: T3, MilA (Streptomyces rimofaciens, UniProt B4Y380); assay: X-ray crystal structure, […] Å; type: binding; details: crystals grown with hmCMP, pH 6.5, 14 °C; active site
T3 construct: full-length, C-terminal 6xHis tag (LEHHHHHH) kept, pET28a, expressed in E. coli BL21(DE3); homodimer, active site from both subunits
T3 sequence (B4Y380 1-334): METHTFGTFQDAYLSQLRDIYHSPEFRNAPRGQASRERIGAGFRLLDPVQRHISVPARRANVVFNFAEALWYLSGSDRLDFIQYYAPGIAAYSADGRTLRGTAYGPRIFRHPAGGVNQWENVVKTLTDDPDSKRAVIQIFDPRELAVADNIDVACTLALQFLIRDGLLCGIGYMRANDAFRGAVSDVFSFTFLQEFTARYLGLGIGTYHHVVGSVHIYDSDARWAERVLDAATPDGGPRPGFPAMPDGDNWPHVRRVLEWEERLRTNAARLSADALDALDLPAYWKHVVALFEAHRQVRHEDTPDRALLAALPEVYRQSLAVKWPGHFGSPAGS

[4] = target: the molecule itself; assay: crystal structure; hanging-drop vapor diffusion at 14 °C; apo MilA (PEG 3350, lithium sulfate, Tris-HCl pH 8.5) and complexes with CMP, dCMP or hmCMP (sodium cacodylate pH 6.5, sodium acetate); space group P3(2)21, two molecules in the asymmetric unit related by a non-crystallographic twofold rotation
[5] = substrate: Nc1ccn([C@@H]2O[C@H](COP(=O)(O)O)[C@@H](O)[C@H]2O)c(=O)n1; assay: HPLC of hmCMP formation, Michaelis-Menten fit; type: biochemical, Streptomyces rimofaciens; details: CH2THF co-substrate saturating (from 2 mM tetrahydrofolate), 50 mM Tris-HCl pH 7.5, 37 °C
From the text: HPLC of hmCMP formation, Michaelis-Menten fit on MilA

[6] = substrate: Nc1ccn([C@H]2C[C@H](O)[C@@H](COP(=O)(O)O)O2)c(=O)n1; assay: HPLC of hmdCMP formation, Michaelis-Menten fit; type: biochemical, Streptomyces rimofaciens; details: CH2THF co-substrate saturating (from 2 mM tetrahydrofolate), 50 mM Tris-HCl pH 7.5, 37 °C
From the text: HPLC of […] formation, Michaelis-Menten fit on MilA

[7] = crystal structure of complex at 1.65 Å
[8] = crystal structure of complex at 2.10 Å

T1 sequence (B4Y380 entry or part of it A176S): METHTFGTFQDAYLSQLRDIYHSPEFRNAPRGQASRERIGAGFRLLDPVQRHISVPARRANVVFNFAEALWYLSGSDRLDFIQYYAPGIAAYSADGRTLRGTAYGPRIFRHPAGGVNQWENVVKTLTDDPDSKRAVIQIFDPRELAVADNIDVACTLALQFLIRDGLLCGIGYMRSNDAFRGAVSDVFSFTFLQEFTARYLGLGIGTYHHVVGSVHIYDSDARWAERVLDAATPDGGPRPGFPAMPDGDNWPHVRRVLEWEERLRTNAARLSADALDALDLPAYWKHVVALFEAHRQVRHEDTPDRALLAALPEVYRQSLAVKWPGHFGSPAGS
T2 sequence (B4Y380 entry or part of it K133R/A176S): as the sequence (B4Y380 entry or part of it A176S) above, with K133R counted along it

## Nc1ccn([C@H]2C[C@H](O)[C@@H](COP(=O)(O)O)O2)c(=O)n1 [dCMP]
MilA [1]
  HPLC/LC-MS of CMP and dCMP competition reaction: significantly enhanced its catalytic efficiency toward dCMP
MilA [2]
  HPLC/LC-MS of CMP and dCMP competition reaction: double mutant MilA A176S/K133R, but its efficiency to dCMP is slightly affected

## Nc1ccn([C@@H]2O[C@H](COP(=O)(O)O)[C@@H](O)[C@H]2O)c(=O)n1 [CMP]
MilA [1]
  HPLC/LC-MS of CMP and dCMP competition reaction: MilA-A176S could still catalyze the hydroxymethylation reaction of CMP

## Nc1nc(=O)n([C@@H]2O[C@H](COP(=O)(O)O)[C@@H](O)[C@H]2O)cc1CO [hmCMP]
MilA [3]
  X-ray crystal structure, 1.80 Å: MilA‒hmCMP complexes have been deposited in the Protein Data Bank

B1: MilA, CMP hydroxymethylase from Streptomyces rimofaciens ZJU5119 (wild type, C-terminally His-tagged) (enzyme, UniProt B4Y380 1-334, looked up)
chain: T3 sequence (B4Y380 1-334)
notes: MilA, CMP hydroxymethylase of the mildiomycin biosynthetic gene cluster, Streptomyces rimofaciens ZJU5119; full-length, cloned into pET28a; They are disordered in the crystal; also called WT MilA; MilA-WT; source: E. coli BL21(DE3), purified (Ni-NTA, Superdex 200 gel filtration); not shown: His6, C-terminal, kept
[4]
  stoichiometry N: 2
[5]
  Km: 0.0719 (0.0076) mM
[5]; [7]
  kcat: 0.047 s⁻¹
  kcat/Km: 653 M⁻¹ s⁻¹
[6]
  Km: 0.245 (0.0589) mM
[6]; [8]
  kcat: 0.032 s⁻¹
  kcat/Km: 131 M⁻¹ s⁻¹
